From paper PMC3582033 (Cell, 2011)

Tests used:
[1] = target: H3(1-28)K9me3K18ac histone peptide (UniProt P68431 2-29, trimethyl-lysine at K9; acetyl-lysine at K18); assay: ITC
[2] = target: H3(1-28) with acetylated K18 (UniProt P68431 2-29, acetyl-lysine at K18); assay: ITC

- fold enhancement of binding over unmodified H3(1-28) [1]: 3.5 fold
- fold enhancement of binding over unmodified H3(1-28) [2]: 2.3 fold
B1: TRIM33 PHD-Bromo cassette (domain or fragment)
chain: DDDPNEDWCAVCQNGGDLLCCEKCPKVFHLTCHVPTLLSFPSGDWICTFCRDIGKPEVEYDCDNLQHSKKGKTAQGLSPVDQRKCERLLLYLYCHELSIEFQEPVPASIPNYYKIIKKPMDLSTVKKKLQKKHSQHYQIPDDFVADVRLIFKNCERFNEMMKVVQVYADTQEINLKADSEVAQAGKAVALYFEDKLTEIYSDRTFA
